Results on 13 molecules are retold here after article PMC3729527, “Redox-sensitive DNA binding by homodimeric Methanosarcina acetivorans MsvR is modulated by cysteine residues”.

In series [1] the test system is T1, MaMsvR C232A C232A (Methanosarcina acetivorans C2A), ORF:da4acb06.
T1 sequence: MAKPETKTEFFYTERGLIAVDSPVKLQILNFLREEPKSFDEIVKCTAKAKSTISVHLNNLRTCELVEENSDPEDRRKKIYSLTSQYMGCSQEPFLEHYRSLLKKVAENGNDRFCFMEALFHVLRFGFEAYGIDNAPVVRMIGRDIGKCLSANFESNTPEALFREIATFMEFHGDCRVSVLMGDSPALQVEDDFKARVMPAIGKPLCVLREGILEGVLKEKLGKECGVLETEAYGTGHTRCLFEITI
As to the kind of experiment: EMSA. The note with it: EMSA at room temperature, 10 nM DNA and 200 nM MsvR (50 nM DNA and 1 uM protein for 50 bp oligos), with or without 5 mM DTT; binding buffer as in cited ref 9 …. (In EMSA bound probe runs differently from free probe, usually more slowly.)

Series [2] deals with T2, MaMsvR (Methanosarcina acetivorans C2A) (UniProt Q8TQT2).
T2 sequence: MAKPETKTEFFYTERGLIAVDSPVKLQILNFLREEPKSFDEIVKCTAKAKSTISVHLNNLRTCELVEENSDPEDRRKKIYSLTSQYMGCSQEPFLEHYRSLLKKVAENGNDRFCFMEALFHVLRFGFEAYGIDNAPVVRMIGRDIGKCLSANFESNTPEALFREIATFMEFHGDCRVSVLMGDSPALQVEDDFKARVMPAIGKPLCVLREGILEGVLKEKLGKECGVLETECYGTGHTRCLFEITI
As to the kind of experiment: EMSA. The note with it: EMSA at room temperature, 10 nM DNA and 200 nM MsvR (50 nM DNA and 1 uM protein for 50 bp oligos), with or without 5 mM DTT; binding buffer as in cited ref 9 ….

Series [3] relates to T3, MaMsvR C240A C240A (Methanosarcina acetivorans C2A), ORF:da4acb06.
T3 sequence: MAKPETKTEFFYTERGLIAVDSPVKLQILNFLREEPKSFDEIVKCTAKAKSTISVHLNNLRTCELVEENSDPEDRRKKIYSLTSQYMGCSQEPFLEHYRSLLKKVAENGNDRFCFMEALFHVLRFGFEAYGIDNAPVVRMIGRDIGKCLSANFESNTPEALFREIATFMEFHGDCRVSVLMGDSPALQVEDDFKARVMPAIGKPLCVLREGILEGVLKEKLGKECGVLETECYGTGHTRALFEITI
As to the kind of experiment: EMSA. Conditions: EMSA at room temperature, 10 nM DNA and 200 nM MsvR (50 nM DNA and 1 uM protein for 50 bp oligos), with or without 5 mM DTT; binding buffer as in cited ref 9 ….

For series [4], the system named is T4, MaMsvR C206A C206A (Methanosarcina acetivorans C2A), ORF:da4acb06.
T4 sequence: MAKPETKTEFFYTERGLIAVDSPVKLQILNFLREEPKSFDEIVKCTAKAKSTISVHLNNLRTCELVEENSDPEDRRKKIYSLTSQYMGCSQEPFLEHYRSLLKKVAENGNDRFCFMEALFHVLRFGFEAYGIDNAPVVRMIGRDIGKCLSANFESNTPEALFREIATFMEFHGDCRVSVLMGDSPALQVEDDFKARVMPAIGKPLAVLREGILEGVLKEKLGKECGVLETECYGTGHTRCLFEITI
As to the kind of experiment: EMSA. Conditions: EMSA at room temperature, 10 nM DNA and 200 nM MsvR (50 nM DNA and 1 uM protein for 50 bp oligos), with or without 5 mM DTT; binding buffer as in cited ref 9 ….

Series [5] has as its target Methanosarcina acetivorans MsvR (methanogen specific V4R domain regulator), N-terminal Strep-tag (Methanosarcina acetivorans C2A). As to the kind of experiment: SEC; Superdex 200 HiLoad 16/600; 20 mM Tris pH 8, 10 mM MgCl2, 200 mM KCl; 0.5 ml/min; non-reduced MaMsvR (0.65 mg loaded) and reduced MaMsvR (0.84 mg, 2 mM beta-ME in the elution buffer); calibrated with ferritin, conalbumin, carbonic anhydrase, ribonuclease A. (Size exclusion chromatography separates by hydrodynamic size, large species first.)

Series [6] shares this target. As to the kind of experiment: SDS-PAGE without boiling, with immunoblot (Strep-tag antibody); 1 pmol protein in Laemmli sample buffer without or with 5 mM DTT, room temperature five minutes, not boiled; reduced and boiled sample as control; oligomers that withstand SDS, likely stabilised by disulfide bonds. For orientation: Immunoblotting shows a protein as a band on a membrane.

Series [7] has as its target T5, MaMsvR (Methanosarcina acetivorans C2A, UniProt Q8TQT2 1-246).
T5 sequence: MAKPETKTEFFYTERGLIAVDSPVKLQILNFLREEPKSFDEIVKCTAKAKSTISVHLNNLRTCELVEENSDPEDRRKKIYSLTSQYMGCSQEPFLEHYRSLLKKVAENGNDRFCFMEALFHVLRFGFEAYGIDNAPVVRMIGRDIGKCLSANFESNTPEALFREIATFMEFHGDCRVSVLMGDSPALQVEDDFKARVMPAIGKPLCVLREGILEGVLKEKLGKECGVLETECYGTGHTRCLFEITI
As to the kind of experiment: EMSA; reducing; EMSA at room temperature, 10 nM DNA and 200 nM MsvR (50 nM DNA and 1 uM protein for 50 bp oligos), with or without 5 mM DTT; binding buffer as in cited ref 9; protein stock in 20 mM Tris pH 8, 10 mM MgCl2, 200 mM KCl, glycerol. Conditions: protein: recombinant; tags: N-terminal Strep-tag; chain copies: 2; blunt.

The target in series [8] is T5, MaMsvR. As to the kind of experiment: EMSA; 5 mM DTT; 1 uM protein, 50 nM DNA; EMSA at room temperature, 10 nM DNA and 200 nM MsvR (50 nM DNA and 1 uM protein for 50 bp oligos), with or without 5 mM DTT; binding buffer as in cited ref 9; protein stock in 20 mM Tris pH 8, 10 mM MgCl2, 200 mM KCl, glycerol. The note with it: protein: recombinant; tags: N-terminal Strep-tag; chain copies: 2; blunt.

For orientation: stoichiometry N means the number of molecules, sites or subunits per partner or assembly.

On to “TTACTTTGCCGTTTCCCCCCATTTTCTTTATATCTTTTTATATCTGTATTATTATATTTCAAACATGATTATTCGTAGTCACGCGAACGTTTTATATATTCAAAACGCAACTTATCTAAAGATATTATGGCAAAACCTGAGACCAAAACTGAATTCTTTTATACCGAAAGAGGGCTCATAGCCGTAGACAGCCCTGTTAAACTCCAGATCCTGAATTTTCTCAGGG (double strand) [Ma PmsvR (PCR)]”, for which the binding entry in series [1], in series [2], in series [3] and in series [4] was “binds” each time.
As for “Methanosarcina acetivorans MsvR (methanogen specific V4R domain regulator), N-terminal Strep-tag (natural protein)”, the stoichiometry N in series [5] and in series [6] was 2 throughout.
On to “GCAGATCTCGCAGCGGTACTTTTCTCCTTTTCTGGATACAGCCATAGCTACTTCACCTCCTTGCTTCTGAATTTAAATACCTCAAAACTTTCAAGCGGGCTTTCCCCTTCCCTGTAATCCCGAAATTACTCCGGGTTTCACCAACACTCATACATGTTAACCATTCTTTGTATATAATTGTAAGGACTTTTTAAAAAGTAACATAAATTTTTTCCTTCTATTCGGGTATGTCTTA (double strand) [Ma P4664]”, for which the binding entry in series [2] is on record as “no binding”.
The same measure, in the same setting: the same measure for “AGATCCCCCAGCGTCTCCAGAACTTGCGGAGTGAATCCCATTTTTTCTCCCATACTCTCCAGTATCTCTTCATGCTCTGTCATTTTTCCAGTCTCCTTACTCCGATAACTACCAGCTGTTGATATTTATATTGGTTATTTATATTTATTATTAATTAATATTTCTCAAATCTGTGTTCAGGCCTTTTACTTCCTCATTCCTGTCCAAAGGCCCTTTATTAAAGTCCGCATCCTTTGTTATGGGCTGCACA (double strand) [Ma P3736]”: “no binding”.
Still for that read-out and setting: the same measure for “TCAGCTTTTCTTACGTTTGACCGTTATAGGAATAATTTCGGCCTTCAACTCTGCAATGGCTACACCCAGGGGGTCCAGCCGCCCGTCATCATCAACCAGGACAGGAGCCCCCATTGCTATCTGCAATGCTCTTGCACCTACAATTCGTGCACGCTCGAACCGGGTATACTTTT (double strand) [Ma rpoK]”: “no binding”; for “CCGAAAACATTCCTGGCAATCTCCGGGATATTATATATTTCCATACTTTTCCTCCAACTCTCTTCTGAATCATTTACTCTCAAAATAAAATGTACCAAAATACGGTACACAGAAATCTTTAACTGTTCCCCACAAGCTCAAAACAGTATTATGGTGTAGCTATGTTAATTCGATATATTTATTATATTGATTAAATATTTTTGATAAGAACCTCTTTCTATTTTTACCTGTTCGTTCTGTCAGA (double strand) [Ma P3381]”: “no binding”; for “AAAGTAAGAAATTCTCTCTATATGTATGGGTTTATGATATCTCAGACCTGAAAATATGCGGATAAAATTCGGATAAAACAGGATTTCCTGATTTGGAGGGAAAGTAATGAAGTGTTACGAATGTGCCAGAGAGGGCAAAGATACGGATGCTGTGGGAATTTGTATCGTATGTGGAAGAGGAGTTTGCAAAGAACACCTTATCCATGAGGAAACACCTGCGTGGGAAGGCGACTATCCTAT (double strand) [Ma P3734]”: “no binding”.
With “AGGCTTTACAAAGTAAATAAAGGGGAGAAAAAGGGTTAAAACCTGAATAAGAAGTAAAGAAAACTCCGATATAAGCAAAAGTATTTATAGAATCCGATTACAAAATCAGAGGTTAGAAGGAATTTATATTAACAAAAAGAAGCTTGGAGGATAATATGGCAAAAGTTATACCATTTGCACCAATCGAACGCCTGATAAGGACGGCTGGTGCCCACAGAGTAAGTGAGA (double strand) [Ma PhmaA]”, the binding entry in series [2] is “no binding”.

B1: Ma PmsvR 1 bp deletion between boxes (dsDNA)
DNA 1: TATTTCAAACATGATTATTCGTAGCACGCGAACGTTTTATATATTCAAA
DNA 2: TTTGAATATATAAAACGTTCGCGTGCTACGAATAATCATGTTTGAAATA
As for B1, in the series with MaMsvR [7], the binding result is on record as “binds”.

B2: Ma PmsvR 1 bp insertion between boxes (dsDNA)
DNA 1: TATTTCAAACATGATTATTCGTAGTTCACGCGAACGTTTTATATATTCAAA
DNA 2: TTTGAATATATAAAACGTTCGCGTGAACTACGAATAATCATGTTTGAAATA
B2: the binding result with MaMsvR [7] was “binds”.

B3: Ma PmsvR flanks replaced (dsDNA)
DNA 1: GAGGGAATGAAATCCTCTTCGTAGTCACGCGAAAATGGACAAGTCTGATT
DNA 2: AATCAGACTTGTCCATTTTCGCGTGACTACGAAGAGGATTTCATTCCCTC
In the case of B3, in the series with MaMsvR [7], the binding result is “no binding”.

B4: Ma PmsvR 50 bp box A mutant (dsDNA)
DNA 1: TATTTCAAACATGATTAGGGGTAGTCACGCGAACGTTTTATATATTCAAA
DNA 2: TTTGAATATATAAAACGTTCGCGTGACTACCCCTAATCATGTTTGAAATA
Regarding B4, the binding result in the series with MaMsvR [8] was “no binding”.

B5: Ma PmsvR 50 bp box B mutant (dsDNA)
DNA 1: TATTTCAAACATGATTATTCGTAGTCACGGGGGCGTTTTATATATTCAAA
DNA 2: TTTGAATATATAAAACGCCCCCGTGACTACGAATAATCATGTTTGAAATA
Take B5: the binding result with MaMsvR [8] is recorded as “no binding”.
